{"source": "patent US20240182536A1", "about": "(MURAL ONCOLOGY, published 2024)", "binders": {"B1": {"name": "IL-18 variant G3N, E6S, K53Q, D54W, S55R, N91T, R104T (ligand)", "chain": "YFNKLSSKLSVIRNLNDQVLFIDQGNRPLFEDMTDSDMRDNAPRTIFIISMYQWRQPRGMAVTISVKSEKISTLSSENKIISFKEMNPPDTIKDTKSDIIFFQTSVPGHDNKMQFESSSYEGYFLASEKERDLFKLILKKEDELGDRSIMFTVQNED"}, "B2": {"name": "IL-18 variant G3S, E6G, D54V, S55K, T63S, N91Y, R104T (ligand)", "chain": "B1 chain with N3S, S6G, Q53K, W54V, R55K, T63S, T91Y"}, "B3": {"name": "IL-18 variant G3Q, E6H, D54N, S55I, T63S, N91V (ligand)", "chain": "B1 chain with N3Q, S6H, Q53K, W54N, R55I, T63S, T91V, T104R"}, "B4": {"name": "IL-18 variant G3Q, E6S, S55V, T63A, N91T (ligand)", "chain": "B1 chain with N3Q, Q53K, W54D, R55V, T63A, T104R"}, "B5": {"name": "IL-18 variant G3E, E6G, N91M, R104A (ligand)", "chain": "B1 chain with N3E, S6G, Q53K, W54D, R55S, T91M, T104A"}, "B6": {"name": "IL-18 variant G3E, E6H, R27S, D54A, S55T, T63S, N91F, R104S (ligand)", "chain": "B1 chain with N3E, S6H, R27S, Q53K, W54A, R55T, T63S, T91F, T104S"}, "B7": {"name": "IL-18 variant G3I, E6D, D54A, S55F, N91Y, R104H (ligand)", "chain": "B1 chain with N3I, S6D, Q53K, W54A, R55F, T91Y, T104H"}, "B8": {"name": "IL-18 variant G3Y, E6N, N91Y, R104S (ligand)", "chain": "B1 chain with N3Y, S6N, Q53K, W54D, R55S, T91Y, T104S"}}, "note": "Positions count from the first letter of the chain named. Names and notes keep the numbering of the source.", "data": [{"biological_target": "T1, IL-18 receptors on HEK-Blue IL-18 reporter cells (UniProt Q13478 19-541; O95256 20-599, limits assumed)", "T1 sequence (looked up) 1": "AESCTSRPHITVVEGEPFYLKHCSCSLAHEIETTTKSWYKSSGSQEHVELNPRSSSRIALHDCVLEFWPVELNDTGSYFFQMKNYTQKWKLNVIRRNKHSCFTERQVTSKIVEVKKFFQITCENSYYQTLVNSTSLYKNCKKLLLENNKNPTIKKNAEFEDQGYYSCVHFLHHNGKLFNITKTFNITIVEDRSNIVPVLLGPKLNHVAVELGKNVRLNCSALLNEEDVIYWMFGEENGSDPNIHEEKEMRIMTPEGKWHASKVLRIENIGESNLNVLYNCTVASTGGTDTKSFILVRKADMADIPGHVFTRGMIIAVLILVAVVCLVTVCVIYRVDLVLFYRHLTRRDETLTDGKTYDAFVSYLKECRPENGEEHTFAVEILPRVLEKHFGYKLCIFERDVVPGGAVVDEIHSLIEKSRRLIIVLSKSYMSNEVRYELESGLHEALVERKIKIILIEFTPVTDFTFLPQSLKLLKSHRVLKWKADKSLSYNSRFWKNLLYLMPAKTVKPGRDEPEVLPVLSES", "T1 sequence (looked up) 2": "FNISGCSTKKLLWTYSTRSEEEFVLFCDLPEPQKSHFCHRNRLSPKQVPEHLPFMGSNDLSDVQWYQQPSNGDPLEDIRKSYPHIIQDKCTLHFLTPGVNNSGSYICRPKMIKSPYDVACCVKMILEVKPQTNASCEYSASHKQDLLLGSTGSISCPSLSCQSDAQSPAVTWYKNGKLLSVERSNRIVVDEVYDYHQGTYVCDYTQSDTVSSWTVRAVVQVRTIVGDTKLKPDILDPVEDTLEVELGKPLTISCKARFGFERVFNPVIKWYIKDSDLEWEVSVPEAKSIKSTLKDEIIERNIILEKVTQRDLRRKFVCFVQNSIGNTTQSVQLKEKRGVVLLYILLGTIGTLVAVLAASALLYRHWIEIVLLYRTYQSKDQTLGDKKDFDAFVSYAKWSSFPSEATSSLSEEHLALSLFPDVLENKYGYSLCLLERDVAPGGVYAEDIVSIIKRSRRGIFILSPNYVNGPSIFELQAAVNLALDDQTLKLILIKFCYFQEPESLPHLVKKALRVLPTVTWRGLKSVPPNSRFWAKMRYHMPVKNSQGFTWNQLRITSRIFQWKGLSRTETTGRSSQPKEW", "assay": "cell-based or functional assay", "values": [{"binder": "B1", "Activity, No BP, DF-100000": 0.46, "Activity, No BP, DF-500000": 0.14, "Activity, No BP, DF-2500000": 0.14}, {"binder": "B2", "Activity, No BP, DF-100000": 1.95, "Activity, No BP, DF-500000": 1.77, "Activity, No BP, DF-2500000": 1.26}, {"binder": "B3", "Activity, No BP, DF-100000": 1.89, "Activity, No BP, DF-500000": 1.9, "Activity, No BP, DF-2500000": 1.64}, {"binder": "B4", "Activity, No BP, DF-100000": 1.94, "Activity, No BP, DF-500000": 1.84, "Activity, No BP, DF-2500000": 1.61}, {"binder": "B5", "Activity, No BP, DF-100000": 2.05, "Activity, No BP, DF-500000": 2, "Activity, No BP, DF-2500000": 1.54}, {"binder": "B6", "Activity, No BP, DF-100000": 2.08, "Activity, No BP, DF-500000": 1.83, "Activity, No BP, DF-2500000": 1.14}, {"binder": "B7", "Activity, No BP, DF-100000": 2.1, "Activity, No BP, DF-500000": 1.96, "Activity, No BP, DF-2500000": 1.34}, {"binder": "B8", "Activity, No BP, DF-100000": 1.87, "Activity, No BP, DF-500000": 1.79, "Activity, No BP, DF-2500000": 1.54}]}, {"biological_target": "T2, IL-18 binding protein (IL-18BP) (UniProt O95998 31-194)", "T2 sequence (looked up)": "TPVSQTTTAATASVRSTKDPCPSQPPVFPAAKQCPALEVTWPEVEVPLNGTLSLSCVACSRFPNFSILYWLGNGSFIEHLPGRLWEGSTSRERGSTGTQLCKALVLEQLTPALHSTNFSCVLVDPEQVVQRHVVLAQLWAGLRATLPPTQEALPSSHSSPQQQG", "assay": "cell-based or functional assay", "values": [{"binder": "B1", "Activity, +100 nM BP, DF-1000002": 0.46, "Activity, +100 nM BP, DF-5000003": 0.15, "Activity, +100 nM BP, DF-25000004": 0.14, "Ratio (-BP/+BP), DF-1000005": 0.99, "Ratio (-BP/+BP), DF-5000006": 0.93, "Ratio (-BP/+BP), DF-25000007": 1.02}, {"binder": "B2", "Activity, +100 nM BP, DF-1000002": 1.64, "Activity, +100 nM BP, DF-5000003": 0.85, "Activity, +100 nM BP, DF-25000004": 0.32, "Ratio (-BP/+BP), DF-1000005": 1.19, "Ratio (-BP/+BP), DF-5000006": 2.08, "Ratio (-BP/+BP), DF-25000007": 3.88}, {"binder": "B3", "Activity, +100 nM BP, DF-1000002": 1.8, "Activity, +100 nM BP, DF-5000003": 1.43, "Activity, +100 nM BP, DF-25000004": 0.71, "Ratio (-BP/+BP), DF-1000005": 1.05, "Ratio (-BP/+BP), DF-5000006": 1.33, "Ratio (-BP/+BP), DF-25000007": 2.31}, {"binder": "B4", "Activity, +100 nM BP, DF-1000002": 1.15, "Activity, +100 nM BP, DF-5000003": 0.46, "Activity, +100 nM BP, DF-25000004": 0.15, "Ratio (-BP/+BP), DF-1000005": 1.68, "Ratio (-BP/+BP), DF-5000006": 4.03, "Ratio (-BP/+BP), DF-25000007": 10.7}, {"binder": "B5", "Activity, +100 nM BP, DF-1000002": 1.93, "Activity, +100 nM BP, DF-5000003": 1.41, "Activity, +100 nM BP, DF-25000004": 0.53, "Ratio (-BP/+BP), DF-1000005": 1.06, "Ratio (-BP/+BP), DF-5000006": 1.41, "Ratio (-BP/+BP), DF-25000007": 2.92}, {"binder": "B6", "Activity, +100 nM BP, DF-1000002": 1.8, "Activity, +100 nM BP, DF-5000003": 1.11, "Activity, +100 nM BP, DF-25000004": 0.41, "Ratio (-BP/+BP), DF-1000005": 1.16, "Ratio (-BP/+BP), DF-5000006": 1.65, "Ratio (-BP/+BP), DF-25000007": 2.79}, {"binder": "B7", "Activity, +100 nM BP, DF-1000002": 2.05, "Activity, +100 nM BP, DF-5000003": 1.45, "Activity, +100 nM BP, DF-25000004": 0.74, "Ratio (-BP/+BP), DF-1000005": 1.02, "Ratio (-BP/+BP), DF-5000006": 1.35, "Ratio (-BP/+BP), DF-25000007": 1.81}, {"binder": "B8", "Activity, +100 nM BP, DF-1000002": 1.78, "Activity, +100 nM BP, DF-5000003": 1.2, "Activity, +100 nM BP, DF-25000004": 0.6, "Ratio (-BP/+BP), DF-1000005": 1.05, "Ratio (-BP/+BP), DF-5000006": 1.5, "Ratio (-BP/+BP), DF-25000007": 2.59}]}]}
